# According to US20250154283A1 (published 2025):
# T1: biotinylated human VWF cysteine knot (CK) domain construct (human, biotin on the in vitro biotinylation tag (residue not stated); one N-glycan)
# T1 construct: Disulfide-linked homodimer; also called biotinylated human VWF CK domain; human VWF CK domain construct
# T1 chain: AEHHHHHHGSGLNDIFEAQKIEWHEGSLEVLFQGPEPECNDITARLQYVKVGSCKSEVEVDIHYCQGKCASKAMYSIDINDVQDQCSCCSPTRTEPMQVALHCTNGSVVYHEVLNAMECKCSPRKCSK
# Target: T1, biotinylated human VWF cysteine knot …
# Experiment: SPR, scFv captured on anti-SV5, pH 7.4
row,binding result,Binder
1,binds,"4956_Lib1_scFv (scFv, not shown: small tags and cut ends) scFv: QVQLVQSGAEVKKPGASVKVSCKVSGYTLTSNYIHWVRQAPGKGLEWMGGFNPSSGSTIYAQKFQGRVTMTEDTSTDTAYMELSSLKSEDTAVYYCARTLYDFWSGYLDAFDIWGQGTMVTVSSSGGSTITSYNVYYTKLSSSGTDIQMTQSPSSVSASVGDRVTITCRASQNIRSSLAWYQQKPGKAPKLLIYAASNLEPGVPSRFSGSGSGTDFTLTISSLQPEDFANYYCQQYEDTPLTFGGGTKVEIK"
2,binds,"399_Lib1_scFv (scFv, not shown: small tags and cut ends) scFv: QVQLVQSGAEVKKPGASVKVSCKVSGITFTSDYIHWVRQAPGKGLEWMGGMNPYSNKAIYAQKFQGRVTMTEDTSTDTAYMELSSLKSEDTAVYYCATGGLRIAARTSYFDYWGQGTLVTVSSSGGSTITSYNVYYTKLSSSGTDIQMTQSPSSVSASVGDRVTITCRASMDIAGSLAWYQQKPGKAPKLLIYDTSFRATGVPSRFSGSGSGTDFTLTISSLQPEDFANYYCQQYDNPPRLTFGGGTKVEIK"
3,binds,"2301_Lib4_scFv (scFv, not shown: small tags and cut ends) scFv: QVQLQESGPGLVKPSQTLSLTCTVSGASISTSDHSWSWIRQPPGKGLEWIGYIRDTGSTDYNPSLKSRVTMSVDTSKNQFSLKVNSVTAADTAVYYCAISSTERWKQSFGVDTEYFQHWGQGTLVTVSSSGGSTITSYNVYYTKLSSSGTEIVMTQSPATLSLSPGERATLSCRASRYVSTNLAWYQQKPGQAPRLLIYDAVTRAPGIPARFSGSGSGTDFTLTISSLEPEDFAVYYCQQYHSLPLIFGGGTKVEIK"
4,binds,"4675_Lib4_scFv (scFv, not shown: small tags and cut ends) scFv: QVQLQESGPGLVKPSQTLSLTCTVSGFSLTSHPEGVNWIRQPPGKGLEWIGYIAHSGTTDYNPSLKSRVTMSVDTSKNQFSLKVNSVTAADTAVYYCARAYGDSDAFDIWGQGTMVTVSSSGGSTITSYNVYYTKLSSSGTEIVMTQSPATLSLSPGERATLSCRASQSIGRNLAWYQQKPGQAPRLLIYGASKRVTGIPARFSGSGSGTDFTLTISSLEPEDFAVYYCQQYSTWPTFGGGTKVEIK"
5,binds,"965_Lib4_scFv (scFv, not shown: small tags and cut ends) scFv: QVQLQESGPGLVKPSQTLSLTCTVSGASFGDNYWSWIRQPPGKGLEWIGYIDTSGSSDYNPSLKSRVTMSVDTSKNQFSLKVNSVTAADTAVYYCARDALGYYYMDVWGKGTTVTVSSSGGSTITSYNVYYTKLSSSGTEIVMTQSPATLSLSPGERATLSCRASQGISGRLAWYQQKPGQAPRLLIYDASARASGIPARFSGSGSGTDFTLTISSLEPEDFAVYYCQQYGTSPYTFGGGTKVEIK"
6,binds,"Lib1_P1_A2_scFv (scFv, not shown: small tags and cut ends) scFv: QVQLVQSGAEVKKPGASVKVSCKVSEGTLSRHYINWVRQAPGKGLEWMGGINAKSGATIYAQKFQGRVTMTEDTSTDTAYMELSSLKSEDTAVYYCAKDTGDDILTDYSDAFDIWGQGTMVTVSSSGGSTITSYNVYYTKLSSSGTDIQMTQSPSSVSASVGDRVTITCRASQNIGTSLAWYQQKPGKAPKLLIYGASNLESGVPSRFSGSGSGTDFTLTISSLQPEDFANYYCLQYNDWPPLYSFGGGTKVEIK"
7,binds,"1675_Lib1_scFv (scFv, not shown: small tags and cut ends) scFv: QVQLVQSGAEVKKPGASVKVSCKVSGVTLTSSAISWVRQAPGKGLEWMGGITPIFGTPIYAQKFQGRVTMTEDTSTDTAYMELSSLKSEDTAVYYCATDYGYPFWAFDIWGQGTMVTVSSSGGSTITSYNVYYTKLSSSGTDIQMTQSPSSVSASVGDRVTITCRASQGIYSALAWYQQKPGKAPKLLIYESSKRPSGVPSRFSGSGSGTDFTLTISSLQPEDFANYYCEQYASSPPTFGGGTKVEIK"
8,binds,"16_Lib8_scFv (scFv, not shown: small tags and cut ends) scFv: EVQLVESGGGLVQPGRSLRLSCAASGFRFDEYDMHWVRQAPGKGLEWVSAISSESASIDYADSVEGRFTISRDNAKNSLYLQMNSLRAEDTAVYYCARDGAYGDYFDYWGQGTMVTVSSSGGSTITSYNVYYTKLSSSGTDIQMTQSPSSLSASVGDRVTITCRASQDIKSWLAWYQQKPGKAPKLLIYGASTLQSGVPSRFSGSGSGTDFTLTISSLQPEDVATYYCQQSYSAPYTFGGGTKVEIK"
9,binds,"Lib4_P2_A10_scFv (scFv, not shown: small tags and cut ends) scFv: QVQLQESGPGLVKPSQTLSLTCTVSGASLGHQYWSWIRQPPGKGLEWIGYIDTSGSTDYNPSLKSRVTMSVDTSKNQFSLKVNSVTAADTAVYYCARVANYYYYMDVWGKGTTVTVSSSGGSTITSYNVYYTKLSSSGTEIVMTQSPATLSLSPGERATLSCRASQSVSNRLAWYQQKPGQAPRLLIYDASNRATGIPARFSGSGSGTDFTLTISSLEPEDFAVYYCQQYFITPSTFGGGTKVEIK"
10,binds,"Lib1_P1_G3_scFv (scFv, not shown: small tags and cut ends) scFv: QVQLVQSGAEVKKPGASVKVSCKVSGYTSRQYIHWVRQAPGKGLEWMGWVTPIFGTTNYAQKFQGRVTMTEDTSTDTAYMELSSLKSEDTAVYYCAREWTGTTAFDIWGQGTLVTVSSSGGSTITSYNVYYTKLSSSGTDIQMTQSPSSVSASVGDRVTITCRASQDIGHYLAWYQQKPGKAPKLLIYAASNRASGVPSRFSGSGSGTDFTLTISSLQPEDFANYYCQQGYSAPYGFGGGTKVEIK"
11,binds,"Lib4_P2_A11_scFv (scFv, not shown: small tags and cut ends, also called Lib4_P2_All) scFv: QVQLQESGPGLVKPSQTLSLTCTVSGVTFSSYGWSWIRQPPGKGLEWIGYVDTSGSTDYNPSLKSRVTMSVDTSKNQFSLKVNSVTAADTAVYYCARTTYYYDSSGFARGWFDPWGQGTLVTVSSSGGSTITSYNVYYTKLSSSGTEIVMTQSPATLSLSPGERATLSCRASRSISTNLAWYQRKPGQAPRLLIYDTSNRAPGIPARFSGSGSGTDFTLTISSLEPEDFAVYYCLQYDVSPYTFGGGTKVEIK"
12,binds,"Lib1_P1_F10_scFv (scFv, not shown: small tags and cut ends) scFv: QVQLVQSGAEVKKPGASVKVSCKVSGYTFSSSGIHWVRQAPGKGLEWMGGIFPNFGTAIYAQKFQGRVTMTEDTSTDTAYMELSSLKSEDTAVYYCARESDFWSGSFTNWGQGTLVTVSSSGGSTITSYNVYYTKLSSSGTDIQMTQSPSSVSASVGDRVTITCRASRSIGNWLAWYQQKPGKAPKLLIYDAFNRASGVPSRFSGSGSGTDFTLTISSLQPEDFANYYCQQSYSTLPRYSFGGGTKVEIK"
13,binds,"15244_Lib8_scFv (scFv, not shown: small tags and cut ends) scFv: EVQLVESGGGLVQPGRSLRLSCAASGFTFADYDMHWVRQAPGKGLEWVSATSSHGVTTDYADSVEGRFTISRDNAKNSLYLQMNSLRAEDTAVYYCARGAWSGIAARQYIDYWGQGTLVTVSSSGGSTITSYNVYYTKLSSSGTDIQMTQSPSSLSASVGDRVTITCRASQTIGYWLAWYQQKPGKAPKLLIYDASVPESGVPSRFSGSGSGTDFTLTISSLQPEDVATYYCQQSYSYPLTFGGGTKVEIK"
14,binds,"27_Lib4_scFv (scFv, not shown: small tags and cut ends) scFv: QVQLQESGPGLVKPSQTLSLTCTVSGASFGDHYWSWIRQPPGKGLEWIGYIDATGSIDYNPSLKSRVTMSVDTSKNQFSLKVNSVTAADTAVYYCARVASYYYYMDVWGKGTTVTVSSSGGSTITSYNVYYTKLSSSGTEIVMTQSPATLSLSPGERATLSCRASQSITGSYLAWYQQKPGQAPRLLIYGASDRAPGIPARFSGSGSGTDFTLTISSLEPEDFAVYYCQQYGSFPYTFGGGTKVEIK"
15,binds,"5662_Lib8_scFv (scFv, not shown: small tags and cut ends) scFv: EVQLVESGGGLVQPGRSLRLSCAASGFNFHNYDMHWVRQAPGKGLEWVSAIDISGQSTDYADSVEGRFTISRDNAKNSLYLQMNSLRAEDTAVYYCAREGWYGGVFDYWGQGTLVTVSSSGGSTITSYNVYYTKLSSSGTDIQMTQSPSSLSASVGDRVTITCRASQDIANWLAWYQQKPGKAPKLLIYGASESGVGVPSRFSGSGSGTDFTLTISSLQPEDVATYYCQQSLTMKTFGGGTKVEIK"
16,binds,"Lib6_P3_A8_scFv (scFv, not shown: small tags and cut ends) scFv: EVQLVQSGAEVKKPGASVKVSCKASGYRFTNYDISWVRQAPGQGLEWMGGINPSSGITIYAQKLQGRGTMTTDPSTSTAYMELRSLRSDDTAVYYCARGAAYGDYLDYWGQGTLVTVSSSGGSTITSYNVYYTKLSSSGTESALTQPASVSGSPGQSITISCTGTNLGEKYVSWYQQHPGKAPKLMIYSTSQRPSGVSNRFSGSKSGNTASLTITGLQAEDEADYYCSSYTASSTPGLVFGGGTKLTVL"
17,binds,"7046_Lib8_scFv (scFv, not shown: small tags and cut ends) scFv: EVQLVESGGGLVQPGRSLRLSCAASGFNFHNYDMHWVRQAPGKGLEWVSAISGSGYTADYADSVEGRFTISRDNAKNSLYLQMNSLRAEDTAVYYCAKSHSSGWSSAFDIWGQGTMVTVSSSGGSTITSYNVYYTKLSSSGTDIQMTQSPSSLSASVGDRVTITCRASQTIGYWLAWYQQKPGKAPKLLIYDATNLATGVPSRFSGSGSGTDFTLTISSLQPEDVATYYCQHYNPYSQVTFGGGTKVEIK"
18,binds,"76_Lib4_scFv (scFv, not shown: small tags and cut ends) scFv: QVQLQESGPGLVKPSQTLSLTCTVSGVSISNHYWSWIRQPPGKGLEWIGYIDESGSTDYNPSLKSRVTMSVDTSKNQFSLKVNSVTAADTAVYYCARVSWGYYAMDVWGQGTTVTVSSSGGSTITSYNVYYTKLSSSGTEIVMTQSPATLSLSPGERATLSCRASQGVSGHLAWYQQKPGQAPRLLIYETSKRATGIPARFSGSGSGTDFTLTISSLEPEDFAVYYCQQYNDYPLGFGGGTKVEIK"
19,binds,"11485_Lib1_scFv (scFv, not shown: small tags and cut ends) scFv: QVQLVQSGAEVKKPGASVKVSCKVSGAPSAAIIHWVRQAPGKGLEWMGGFTQIFGTAIYAQKFQGRVTMTEDTSTDTAYMELSSLKSEDTAVYYCAREGIGGHDAFDIWGQGTMVTVSSSGGSTITSYNVYYTKLSSSGTDIQMTQSPSSVSASVGDRVTITCRASQDISKNLAWYQQKPGKAPKLLIYKASKLESGVPSRFSGSGSGTDFTLTISSLQPEDFANYYCLHDYTYPPTFGGGTKVEIK"
20,binds,"69_Lib8_scFv (scFv, not shown: small tags and cut ends) scFv: EVQLVESGGGLVQPGRSLRLSCAASAFTFSNYDMHWVRQAPGKGLEWVSAISGSGDTSDYADSVEGRFTISRDNAKNSLYLQMNSLRAEDTAVYYCVRASWYGTFFDYWGQGTLVTVSSSGGSTITSYNVYYTKLSSSGTDIQMTQSPSSLSASVGDRVTITCRASQSVSGWLAWYQQKPGKAPKLLIYGTSTLQSGVPSRFSGSGSGTDFTLTISSLQPEDVATYYCQQSYSAPYTFGGGTKVEIK"
